Laboratory results reported in PMC3825817 (DNA repair, 2013).

T1: human DNA polymerase δ p125 catalytic subunit (human, UniProt P28340 1-1107)
T1 sequence (looked up): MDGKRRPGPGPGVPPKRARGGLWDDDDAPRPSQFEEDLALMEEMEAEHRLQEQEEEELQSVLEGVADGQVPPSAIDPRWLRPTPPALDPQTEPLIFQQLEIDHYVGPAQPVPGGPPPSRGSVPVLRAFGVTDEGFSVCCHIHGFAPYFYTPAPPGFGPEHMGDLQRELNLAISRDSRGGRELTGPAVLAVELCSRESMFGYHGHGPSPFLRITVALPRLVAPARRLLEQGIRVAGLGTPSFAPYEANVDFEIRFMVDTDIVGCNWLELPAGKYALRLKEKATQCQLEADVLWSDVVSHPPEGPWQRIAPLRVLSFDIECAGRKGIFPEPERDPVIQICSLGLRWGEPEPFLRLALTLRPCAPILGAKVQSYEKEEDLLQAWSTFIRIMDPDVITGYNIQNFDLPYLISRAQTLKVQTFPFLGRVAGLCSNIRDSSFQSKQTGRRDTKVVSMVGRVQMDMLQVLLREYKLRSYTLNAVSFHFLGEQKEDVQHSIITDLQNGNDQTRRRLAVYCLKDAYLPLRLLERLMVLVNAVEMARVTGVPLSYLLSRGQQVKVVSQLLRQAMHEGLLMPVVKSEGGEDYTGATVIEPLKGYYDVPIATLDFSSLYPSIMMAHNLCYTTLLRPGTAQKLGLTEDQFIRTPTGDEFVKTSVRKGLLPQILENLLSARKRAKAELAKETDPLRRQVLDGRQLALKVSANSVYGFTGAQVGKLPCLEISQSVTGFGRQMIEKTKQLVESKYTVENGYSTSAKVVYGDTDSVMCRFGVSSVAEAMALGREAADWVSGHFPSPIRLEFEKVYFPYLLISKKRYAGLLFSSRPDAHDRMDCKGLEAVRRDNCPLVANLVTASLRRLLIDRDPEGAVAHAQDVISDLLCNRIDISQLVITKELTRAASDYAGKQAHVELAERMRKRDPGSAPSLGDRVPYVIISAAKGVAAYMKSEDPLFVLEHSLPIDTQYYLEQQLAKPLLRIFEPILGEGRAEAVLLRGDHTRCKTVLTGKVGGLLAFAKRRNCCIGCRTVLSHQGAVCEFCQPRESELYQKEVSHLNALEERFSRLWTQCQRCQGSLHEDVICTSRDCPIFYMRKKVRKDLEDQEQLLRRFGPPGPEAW


target: T1, human DNA polymerase δ p125 catalytic …; assay: immunoaffinity co-purification, SDS-PAGE

Row | stoichiometry N | Binder
1 | ~1 | human DNA polymerase δ p50 subunit (natural protein) not shown
2 | ~1 | human DNA polymerase δ p12 subunit (natural protein, UniProt Q9HCU8 1-107, looked up) MGRKRLITDSYPVVKRREGPAGHSKGELAPELGEEPQPRDEEEAELELLRQFDLAWQYGPCTGITRLQRWCRAKQMGLEPPPEVWQVLKTHPGDPRFQCSLWHLYPL
3 | ~1 | human DNA polymerase δ p68 subunit (natural protein, UniProt Q15054 1-466, looked up) MADQLYLENIDEFVTDQNKIVTYKWLSYTLGVHVNQAKQMLYDYVERKRKENSGAQLHVTYLVSGSLIQNGHSCHKVAVVREDKLEAVKSKLAVTASIHVYSIQKAMLKDSGPLFNTDYDILKSNLQNCSKFSAIQCAAAVPRAPAESSSSSKKFEQSHLHMSSETQANNELTTNGHGPPASKQVSQQPKGIMGMFASKAAAKTQETNKETKTEAKEVTNASAAGNKAPGKGNMMSNFFGKAAMNKFKVNLDSEQAVKEEKIVEQPTVSVTEPKLATPAGLKKSSKKAEPVKVLQKEKKRGKRVALSDDETKETENMRKKRRRIKLPESDSSEDEVFPDSPGAYEAESPSPPPPPSPPLEPVPKTEPEPPSVKSSSGENKRKRKRVLKSKTYLDGEGCIVTEKVYESESCTDSEEELNMKTSSVHRPPAMTVKKEPREERKGPKKGTAALGKANRQVSITGFFQRK
